Values belong to the binder of their own block, whether it stands above or below them.
Experiments:
4H462-bH = target: T1, 4H462-bH; experiment: two-hybrid library CCNG1;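 further: natural log of median RNA to DNA barcode read ratio; higher means stronger binding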
T1 chain: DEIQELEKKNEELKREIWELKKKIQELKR

4H953-bH = target: T2, 4H953-bH; experiment: two-hybrid library CCNG1;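 further: natural log of median RNA to DNA barcode read ratio; higher means stronger binding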
T2 chain: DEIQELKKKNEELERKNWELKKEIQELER

4H3782-bH = target: T3, 4H3782-bH; experiment: two-hybrid library CCNG1;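 further: natural log of median RNA to DNA barcode read ratio; higher means stronger binding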
T3 chain: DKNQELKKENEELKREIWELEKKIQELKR

4H4001-bH = target: T4, 4H4001-bH; experiment: two-hybrid library CCNG1;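 further: natural log of median RNA to DNA barcode read ratio; higher means stronger binding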
T4 chain: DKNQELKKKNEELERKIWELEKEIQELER

4H370-bH = target: T5, 4H370-bH; experiment: two-hybrid library CCNG1
T5 chain: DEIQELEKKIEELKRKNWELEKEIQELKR

4H918-bH = target: T6, 4H918-bH; experiment: two-hybrid library CCNG1
T6 chain: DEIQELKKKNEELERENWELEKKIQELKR

4H3843-bH = target: T7, 4H3843-bH; experiment: two-hybrid library CCNG1
T7 chain: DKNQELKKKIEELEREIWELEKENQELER

4H607-bH = target: T8, 4H607-bH; experiment: two-hybrid library CCNG1
T8 chain: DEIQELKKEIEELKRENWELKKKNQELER

4H568-bH = target: T9, 4H568-bH; experiment: two-hybrid library CCNG1
T9 chain: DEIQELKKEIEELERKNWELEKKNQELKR

4H797-bH = target: T10, 4H797-bH; experiment: two-hybrid library CCNG1
T10 chain: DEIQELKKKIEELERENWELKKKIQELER

4H72-bH = target: T11, 4H72-bH; experiment: two-hybrid library CCNG1
T11 chain: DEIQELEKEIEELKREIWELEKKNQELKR

4H967-bH = target: T12, 4H967-bH; experiment: two-hybrid library CCNG1
T12 chain: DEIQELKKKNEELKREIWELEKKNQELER

4H3606-bH = target: T13, 4H3606-bH; experiment: two-hybrid library CCNG1; conditions: mean of both orientations
T13 chain: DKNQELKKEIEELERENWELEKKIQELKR

4H883-bH = target: T14, 4H883-bH; experiment: two-hybrid library CCNG1
T14 chain: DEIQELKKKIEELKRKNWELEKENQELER

4H687-bH = target: T15, 4H687-bH; experiment: two-hybrid library CCNG1
T15 chain: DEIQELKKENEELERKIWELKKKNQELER

4H3001-AA = target: T16, 4H3001-AA; experiment: two-hybrid library CCmax; conditions: mean of both orientations
T16 chain: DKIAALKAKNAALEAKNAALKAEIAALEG

4H2466-AA = target: T17, 4H2466-AA; experiment: two-hybrid library CCmax; conditions: mean of both orientations
T17 chain: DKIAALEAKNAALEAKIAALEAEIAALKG

4H2343-AA = target: T18, 4H2343-AA; experiment: two-hybrid library CCmax
T18 chain: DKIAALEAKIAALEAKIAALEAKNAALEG

4H2931-AA = target: T19, 4H2931-AA; experiment: two-hybrid library CCmax; conditions: mean of both orientations
T19 chain: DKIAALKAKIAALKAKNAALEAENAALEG

4H452-AA = target: T20, 4H452-AA; experiment: two-hybrid library CCmax; conditions: mean of both orientations
T20 chain: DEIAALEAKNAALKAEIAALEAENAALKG

4H3015-AA = target: T21, 4H3015-AA; experiment: two-hybrid library CCmax; conditions: mean of both orientations
T21 chain: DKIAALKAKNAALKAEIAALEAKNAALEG

4H3073-AA = target: T22, 4H3073-AA; experiment: two-hybrid library CCmax; conditions: mean of both orientations
T22 chain: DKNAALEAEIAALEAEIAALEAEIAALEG

4H2774-AA = target: T23, 4H2774-AA; experiment: two-hybrid library CCmax; conditions: mean of both orientations
T23 chain: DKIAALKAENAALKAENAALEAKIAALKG

4H_APH = target: T24, 4H_APH; experiment: two-hybrid library CCmax; conditions: mean of both orientations
T24 chain: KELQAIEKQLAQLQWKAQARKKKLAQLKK

GCN2_T = experiment: two-hybrid library CCmax
4H249-AA = target: T25, 4H249-AA; experiment: two-hybrid library CCmax; conditions: mean of both orientations
T25 chain: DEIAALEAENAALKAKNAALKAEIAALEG

4H56-AA = target: T26, 4H56-AA; experiment: two-hybrid library CCmax; conditions: mean of both orientations
T26 chain: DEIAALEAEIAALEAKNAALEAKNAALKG

4H_GCN4 = experiment: two-hybrid library CCmax; conditions: mean of both orientations
Chain of 4H_GCN4 (chain, as listed by the source): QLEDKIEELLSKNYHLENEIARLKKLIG

4H3438-AA = target: T27, 4H3438-AA; experiment: two-hybrid library CCmax; conditions: mean of both orientations
T27 chain: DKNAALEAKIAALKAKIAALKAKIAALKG

4H347-AA = target: T28, 4H347-AA; experiment: two-hybrid library CCmax; conditions: mean of both orientations
T28 chain: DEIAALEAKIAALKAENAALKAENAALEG

4H2592-AA = target: T29, 4H2592-AA; experiment: two-hybrid library CCmax; conditions: mean of both orientations
T29 chain: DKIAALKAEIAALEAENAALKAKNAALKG

4H406-AA = target: T30, 4H406-AA; experiment: two-hybrid library CCmax; conditions: mean of both orientations
T30 chain: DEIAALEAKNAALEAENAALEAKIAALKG

4H_BCR = target: T31, 4H_BCR; experiment: two-hybrid library CCmax; conditions: mean of both orientations
T31 chain: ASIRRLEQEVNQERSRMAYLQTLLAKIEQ

4H2732-AA = target: T32, 4H2732-AA; experiment: two-hybrid library CCmax; conditions: mean of both orientations
T32 chain: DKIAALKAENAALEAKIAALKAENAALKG

- interaction score (4H462-bH): -0.116
- interaction score (4H953-bH): -1.36
- interaction score (4H3782-bH): -0.967
- interaction score (4H4001-bH): 0.174
- interaction score (4H370-bH): 1.69
- interaction score (4H918-bH): -0.633
- interaction score (4H3843-bH): 0.511
- interaction score (4H607-bH): -0.729
- interaction score (4H568-bH): 1.11
- interaction score (4H797-bH): -0.0905
- interaction score (4H72-bH): -0.306
- interaction score (4H967-bH): 1.21
- interaction score (4H3606-bH): -0.593
- interaction score (4H883-bH): 0.484
- interaction score (4H687-bH): -0.48
Binder: DKNQELKKEIEELERENWELEKKIQELKR [4H3606-bH]

- interaction score (4H3001-AA): -1.8
- interaction score (4H2466-AA): -1.39
- interaction score (4H2343-AA): 1.95
- interaction score (4H2931-AA): -1.61
- interaction score (4H452-AA): -1.86
- interaction score (4H3015-AA): -1.83
- interaction score (4H3073-AA): 0.404
- interaction score (4H2774-AA): -1.54
- interaction score (4H_APH): -1.88
- interaction score (GCN2_T): -2.25
- interaction score (4H249-AA): -1.75
- interaction score (4H56-AA): -1.45
- interaction score (4H_GCN4): -1.32
- interaction score (4H3438-AA): 0.393
- interaction score (4H347-AA): -1.77
- interaction score (4H2592-AA): -1.2
- interaction score (4H406-AA): -1.85
- interaction score (4H_BCR): -2.04
- interaction score (4H2732-AA): -1.84
Binder: DKIAALEAKIAALEAKIAALEAKNAALEG [4H2343-AA]
